Laboratory results published in IntAct's records for PubMed 18239685.

Biological target: taxb1_human TAX1BP1 (UniProt Q86VP1)

## Polyubiquitin-C (Homo sapiens) (from UniProt P0CG48) I44A
  effect of a mutation on the interaction: decreasing interaction
